In patent US20150344570A1 (published 2015) one finds He/Con_3a and Ho/Con_3a data, which are given here for 27 molecules.

First the molecules themselves.
B1: GpH7-A5/GpH7-B3 variant I332_15Y/GpL16-k0 (antibody, human IgG1, kappa)
heavy 1: not shown
heavy 2: not shown
light: DIVMTQSPLSLPVTPGEPASISCQASESLVHSNRNTYLHWYLQKPGQSPQLLIYKVSNRFSGVPDRFSGSGSGTDFTLKISRVEAEDVGVYYCSQNTHVPPTFGQGTKVEIERTVAAPSVFIFPPSDEQLKSGTASVVCLLNNFYPREAKVQWKVDNALQSGNSQESVTEQDSKDSTYSLSSTLTLSKADYEKHKVYACEVTHQGLSSPVTKSFNRGEC
notes: also called He Ab I332_15Y
B2: GpH7-A5/GpH7-B3 variant K334_09D/GpL16-k0 (antibody, human IgG1, kappa)
heavy 1: not shown
heavy 2: not shown
light: B1 light
notes: also called He Ab K334_09D
B3: GpH7-A5/GpH7-B3 variant K326_04F/GpL16-k0 (antibody, human IgG1, kappa)
heavy 1: not shown
heavy 2: not shown
light: B1 light
notes: also called He Ab K326_04F
B4: GpH7-A5/GpH7-B3 variant K334_05P/GpL16-k0 (antibody, human IgG1, kappa)
heavy 1: not shown
heavy 2: not shown
light: B1 light
notes: also called He Ab K334_05P
B5: GpH7-A5/GpH7-B3 variant K334_07I/GpL16-k0 (antibody, human IgG1, kappa)
heavy 1: not shown
heavy 2: not shown
light: B1 light
notes: also called He Ab K334_07I
B6: GpH7-A5/GpH7-B3 variant K334_03V/GpL16-k0 (antibody, human IgG1, kappa)
heavy 1: not shown
heavy 2: not shown
light: B1 light
notes: also called He Ab K334_03V
B7: GpH7-A5/GpH7-B3 variant I332_13S/GpL16-k0 (antibody, human IgG1, kappa)
heavy 1: not shown
heavy 2: not shown
light: B1 light
notes: also called He Ab I332_13S
B8: GpH7-A5/GpH7-B3 variant K326_14T/GpL16-k0 (antibody, human IgG1, kappa)
heavy 1: not shown
heavy 2: not shown
light: B1 light
notes: also called He Ab K326_14T
B9: GpH7-A5/GpH7-B3 variant H268_09D/GpL16-k0 (antibody, human IgG1, kappa)
heavy 1: not shown
heavy 2: not shown
light: B1 light
notes: also called He Ab H268_09D
B10: GpH7-B3 variant S267_09D/GpL16-k0 (antibody, human IgG1, kappa)
heavy: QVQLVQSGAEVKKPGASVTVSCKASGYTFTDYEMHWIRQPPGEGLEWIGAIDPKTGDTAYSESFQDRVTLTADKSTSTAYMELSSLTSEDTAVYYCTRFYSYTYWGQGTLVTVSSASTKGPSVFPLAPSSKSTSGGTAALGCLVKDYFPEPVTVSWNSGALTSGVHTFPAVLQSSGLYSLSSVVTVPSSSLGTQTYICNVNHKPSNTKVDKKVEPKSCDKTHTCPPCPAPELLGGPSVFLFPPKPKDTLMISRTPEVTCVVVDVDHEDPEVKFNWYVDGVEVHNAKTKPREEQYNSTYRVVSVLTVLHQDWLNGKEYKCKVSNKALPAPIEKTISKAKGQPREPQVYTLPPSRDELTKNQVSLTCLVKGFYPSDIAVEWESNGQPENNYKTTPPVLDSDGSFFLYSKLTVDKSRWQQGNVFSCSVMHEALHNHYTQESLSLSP
light: B1 light
notes: also called Ho Ab S267_09D
B11: GpH7-A5/GpH7-B3 variant E333_16H/GpL16-k0 (antibody, human IgG1, kappa)
heavy 1: not shown
heavy 2: not shown
light: B1 light
notes: also called He Ab E333_16H
B12: GpH7-B3 variant S298_14T/GpL16-k0 (antibody, human IgG1, kappa)
heavy: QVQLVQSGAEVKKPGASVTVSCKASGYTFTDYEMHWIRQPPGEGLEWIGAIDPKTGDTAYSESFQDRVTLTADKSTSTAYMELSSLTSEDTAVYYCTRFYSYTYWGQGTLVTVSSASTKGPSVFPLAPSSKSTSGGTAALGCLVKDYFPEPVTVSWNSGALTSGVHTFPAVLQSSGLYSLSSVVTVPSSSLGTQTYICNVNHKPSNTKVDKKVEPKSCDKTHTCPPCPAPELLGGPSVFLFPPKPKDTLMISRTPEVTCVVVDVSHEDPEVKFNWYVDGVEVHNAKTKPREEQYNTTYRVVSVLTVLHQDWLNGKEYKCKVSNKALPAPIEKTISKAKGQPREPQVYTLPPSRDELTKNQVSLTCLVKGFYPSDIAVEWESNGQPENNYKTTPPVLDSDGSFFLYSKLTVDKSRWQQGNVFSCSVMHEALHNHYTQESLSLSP
light: B1 light
notes: also called Ho Ab S298_14T
B13: GpH7-A5/GpH7-B3 variant I336_06M/GpL16-k0 (antibody, human IgG1, kappa)
heavy 1: not shown
heavy 2: not shown
light: B1 light
notes: also called He Ab I336_06M
B14: GpH7-A5/GpH7-B3 variant K334_10E/GpL16-k0 (antibody, human IgG1, kappa)
heavy 1: not shown
heavy 2: not shown
light: B1 light
notes: also called He Ab K334_10E
B15: GpH7-A5/GpH7-B3 variant I336_09D/GpL16-k0 (antibody, human IgG1, kappa)
heavy 1: not shown
heavy 2: not shown
light: B1 light
notes: also called He Ab I336_09D
B16: GpH7-A5/GpH7-B3 variant I332_14T/GpL16-k0 (antibody, human IgG1, kappa)
heavy 1: not shown
heavy 2: not shown
light: B1 light
notes: also called He Ab I332_14T
B17: GpH7-A5/GpH7-B3 variant I336_03V/GpL16-k0 (antibody, human IgG1, kappa)
heavy 1: not shown
heavy 2: not shown
light: B1 light
notes: also called He Ab I336_03V
B18: GpH7-A5/GpH7-B3 variant A330_20W/GpL16-k0 (antibody, human IgG1, kappa)
heavy 1: not shown
heavy 2: not shown
light: B1 light
notes: also called He Ab A330_20W
B19: GpH7-A5/GpH7-B3 variant H268_10E/GpL16-k0 (antibody, human IgG1, kappa)
heavy 1: not shown
heavy 2: not shown
light: B1 light
notes: also called He Ab H268_10E
B20: GpH7-A5/GpH7-B3 variant K334_08L/GpL16-k0 (antibody, human IgG1, kappa)
heavy 1: not shown
heavy 2: not shown
light: B1 light
notes: also called He Ab K334_08L
B21: GpH7-A5/GpH7-B3 variant A330_04F/GpL16-k0 (antibody, human IgG1, kappa)
heavy 1: not shown
heavy 2: not shown
light: B1 light
notes: also called He Ab A330_04F
B22: GpH7-A5/GpH7-B3 variant A330_08L/GpL16-k0 (antibody, human IgG1, kappa)
heavy 1: not shown
heavy 2: not shown
light: B1 light
notes: also called He Ab A330_08L
B23: GpH7-B3 variant T335_07I/GpL16-k0 (antibody, human IgG1, kappa)
heavy: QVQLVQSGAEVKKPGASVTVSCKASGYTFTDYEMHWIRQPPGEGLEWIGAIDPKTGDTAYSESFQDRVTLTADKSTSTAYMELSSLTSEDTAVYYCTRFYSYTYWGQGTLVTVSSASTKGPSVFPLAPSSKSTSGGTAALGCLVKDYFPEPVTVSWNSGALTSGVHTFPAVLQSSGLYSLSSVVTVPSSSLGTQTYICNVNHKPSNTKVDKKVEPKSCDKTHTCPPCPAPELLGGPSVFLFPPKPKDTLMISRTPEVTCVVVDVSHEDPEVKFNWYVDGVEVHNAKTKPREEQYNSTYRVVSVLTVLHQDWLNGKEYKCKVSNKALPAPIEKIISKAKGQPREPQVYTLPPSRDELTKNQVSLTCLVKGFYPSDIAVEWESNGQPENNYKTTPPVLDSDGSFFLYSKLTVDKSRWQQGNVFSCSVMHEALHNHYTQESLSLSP
light: B1 light
notes: also called Ho Ab T335_07I
B24: GpH7-A5/GpH7-B3 variant K326_08L/GpL16-k0 (antibody, human IgG1, kappa)
heavy 1: not shown
heavy 2: not shown
light: B1 light
notes: also called He Ab K326_08L
B25: GpH7-A5/GpH7-B3 variant K326_15Y/GpL16-k0 (antibody, human IgG1, kappa)
heavy 1: not shown
heavy 2: not shown
light: B1 light
notes: also called He Ab K326_15Y
B26: GpH7-A5/GpH7-B3 variant I332_02A/GpL16-k0 (antibody, human IgG1, kappa)
heavy 1: not shown
heavy 2: not shown
light: B1 light
notes: also called He Ab I332_02A
B27: GpH7-A5/GpH7-B3 variant I336_02A/GpL16-k0 (antibody, human IgG1, kappa)
heavy 1: not shown
heavy 2: not shown
light: B1 light
notes: also called He Ab I336_02A

The target in the assay is T1, FcγRIIIa extracellular domain with C-terminal His tag (human, UniProt P08637 17-208).
T1 construct: extracellular domain; also called FcgRIIIa; 3a; not shown: His tag attached to the C terminus
T1 sequence (P08637 17-208): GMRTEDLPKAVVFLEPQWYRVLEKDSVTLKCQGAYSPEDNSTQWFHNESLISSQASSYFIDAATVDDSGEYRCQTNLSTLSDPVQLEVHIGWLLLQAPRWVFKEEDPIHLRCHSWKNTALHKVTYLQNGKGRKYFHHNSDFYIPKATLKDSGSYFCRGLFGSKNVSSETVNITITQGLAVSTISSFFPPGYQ
Briefly: SPR Biacore, captured antibody, FcγR analyte, relative binding. Here is the method:
Analysis of interaction between objective antibody and the FcγR was carried out using Biacore T100 (GE Healthcare). HBS-EP+ (GE Healthcare) was used as the running buffer, and the measurement temperature was set to 25° C. Chips produced by immobilizing the antigen peptide by the amine coupling method to a Series S Sencor Chip CM5 (GE Healthcare), or alternatively, chips produced by allowing preliminarily biotinylated antigen peptides to interact with and immobilize onto a Series S Sensor Chip SA (certified) (GE Healthcare) were used. Antibodies of interest were captured onto an antigen peptide-immobilized chip, and allowed to interact to each FcγR diluted with running buffer. To regenerate and repeatedly use the chip, the antibodies captured on the chip were washed off by reacting 10 mM glycine-HCl, pH 1.5.
Take B1: the He/Con_3a is 101 % of HeCon Ab GpH7-A5/GpH7-B3/GpL16-k0 (=100).
Consider B2, for which the He/Con_3a is 160 % of HeCon Ab GpH7-A5/GpH7-B3/GpL16-k0 (=100).
On to B3, for which the He/Con_3a was 103 % of HeCon Ab GpH7-A5/GpH7-B3/GpL16-k0 (=100).
Still for that read-out and setting: with B4 the figure was 134 % of HeCon Ab GpH7-A5/GpH7-B3/GpL16-k0 (=100); with B5, 151 % of HeCon Ab GpH7-A5/GpH7-B3/GpL16-k0 (=100); with B6, 150 % of HeCon Ab GpH7-A5/GpH7-B3/GpL16-k0 (=100).
Still for that read-out and setting: with B7 the figure was 104 % of HeCon Ab GpH7-A5/GpH7-B3/GpL16-k0 (=100).
For the molecule B8, the He/Con_3a is 126 % of HeCon Ab GpH7-A5/GpH7-B3/GpL16-k0 (=100).
For the molecule B9, the He/Con_3a was 197 % of HeCon Ab GpH7-A5/GpH7-B3/GpL16-k0 (=100).
Consider B10, for which the Ho/Con_3a was 160 % of HoCon Ab GpH7-B3/GpL16-k0 (=100).
Turning to B11, the He/Con_3a is 103 % of HeCon Ab GpH7-A5/GpH7-B3/GpL16-k0 (=100).
As to B12, the Ho/Con_3a is 107 % of HoCon Ab GpH7-B3/GpL16-k0 (=100).
With B13, the He/Con_3a is 109 % of HeCon Ab GpH7-A5/GpH7-B3/GpL16-k0 (=100).
For B14, the He/Con_3a was 181 % of HeCon Ab GpH7-A5/GpH7-B3/GpL16-k0 (=100).
The same measure, in the same setting: with B15 the figure was 106 % of HeCon Ab GpH7-A5/GpH7-B3/GpL16-k0 (=100); with B16, 120 % of HeCon Ab GpH7-A5/GpH7-B3/GpL16-k0 (=100).
Same read-out and setting: with B17 the figure was 112 % of HeCon Ab GpH7-A5/GpH7-B3/GpL16-k0 (=100).
For the molecule B18, the He/Con_3a is 104 % of HeCon Ab GpH7-A5/GpH7-B3/GpL16-k0 (=100).
The same measure, in the same setting: with B19 the figure was 186 % of HeCon Ab GpH7-A5/GpH7-B3/GpL16-k0 (=100); with B20, 143 % of HeCon Ab GpH7-A5/GpH7-B3/GpL16-k0 (=100); with B21, 147 % of HeCon Ab GpH7-A5/GpH7-B3/GpL16-k0 (=100).
For B22, the He/Con_3a was 124 % of HeCon Ab GpH7-A5/GpH7-B3/GpL16-k0 (=100).
Turning to B23, the Ho/Con_3a was 107 % of HoCon Ab GpH7-B3/GpL16-k0 (=100).
Turning to B24, the He/Con_3a was 114 % of HeCon Ab GpH7-A5/GpH7-B3/GpL16-k0 (=100).
Still for that read-out and setting: with B25 the figure was 112 % of HeCon Ab GpH7-A5/GpH7-B3/GpL16-k0 (=100); with B26, 112 % of HeCon Ab GpH7-A5/GpH7-B3/GpL16-k0 (=100); with B27, 111 % of HeCon Ab GpH7-A5/GpH7-B3/GpL16-k0 (=100).
